In patent US20120117670A1 (U3 PHARMA, published 2012):
Like-named read-outs stand apart in the source and are kept apart here.

B1: h#11B7-T7 (antibody, human IgG1, kappa, V domains shown)
VH: QVQLQESGPGLVKPSETLSLTCTVSGYSITSNYWGWIRQPPGKGLEWIGYITYSGSTSYNPSLKSRVSISRDTSKNQFSLKLSSVTAADTAVYYCAITTFYYWGQGTLVTVSS
VL: DIQMTQSPSSLSASVGDRVTITCRASQDIGNYLRWYQQKPGKAPKLMISGATNLAAGVPSRFSGSGSGSDYTLTISSLQPEDFATYYCLQSKESPWTFGQGTKVEIKR
notes: Humanized IgG1/kappa
B2: h#11B7-T12 (antibody, human IgG1, kappa, V domains shown)
VH: QVQLQESGPGLVKPSETLSLTCTVSGYSITSNYWGWIRQPPGKGLEWIGYITYSGSTSYNPSLKSRVSISRDTSKNQFSLKLSSVTAADTAVYYCAITTFYYWGQGTLVTVSS
VL: DIQMTQSPSSLSASVGDRVTITCRASQDIGNYLRWYQQKPGKAPKLMISGATNLAAGVPSRFSGSGSGSDFTLTISSLQPEDFATYYCLQSKESPWTFGQGTKVEIKR
notes: Humanized IgG1/kappa
B3: h#11B7-T10 (antibody, human IgG1, kappa, V domains shown)
VH: QVQLQESGPGLVKPSETLSLTCTVSGYSITSNYWGWIRQPPGKGLEWIGYITYSGSTSYNPSLKSRVSISRDTSKNQFSLKLSSVTAADTAVYYCAITTFYYWGQGTLVTVSS
VL: DIQMTQSPSSLSASVGDRVTITCRASQDIGNYLRWYQQKPGKAPKLLISGATNLAAGVPSRFSGSGSGSDYTLTISSLQPEDFATYYCLQSKESPWTFGQGTKVEIKR
notes: Humanized IgG1/kappa
B4: h#11B7-T11 (antibody, human IgG1, kappa, V domains shown)
VH: QVQLQESGPGLVKPSETLSLTCTVSGYSITSNYWGWIRQPPGKGLEWIGYITYSGSTSYNPSLKSRVSISRDTSKNQFSLKLSSVTAADTAVYYCAITTFYYWGQGTLVTVSS
VL: DIQMTQSPSSLSASVGDRVTITCRASQDIGNYLRWFQQKPGKAPKLLISGATNLAAGVPSRFSGSGSGSDFTLTISSLQPEDFATYYCLQSKESPWTFGQGTKVEIKR
notes: Humanized IgG1/kappa
B5: h#11B7-T15 (antibody, human IgG1, kappa)
heavy: not shown
light: DIQMTQSPSSLSASVGDRVTITCRASQDIGNYLRWFQQKPGKAPKLLISGATNLAAGVPSRFSGSGSGSDYTLTISSLQPEDFATYYCLQSKESPWTFGQGTKVEIKRTVAAPSVFIFPPSDEQLKSGTASVVCLLNNFYPREAKVQWKVDNALQSGNSQESVTEQDSKDSTYSLSSTLTLSKADYEKHKVYACEVTHQGLSSPVTKSFNRGEC
notes: Humanized IgG1/kappa
B6: h#11B7-T13 (antibody, human IgG1, kappa, V domains shown)
VH: QVQLQESGPGLVKPSETLSLTCTVSGYSITSNYWGWIRQPPGKGLEWIGYITYSGSTSYNPSLKSRVSISRDTSKNQFSLKLSSVTAADTAVYYCAITTFYYWGQGTLVTVSS
VL: DIQMTQSPSSLSASVGDRVTITCRASQDIGNYLRWYQQKPGKAPKLLISGATNLAAGVPSRFSGSGSGSDFTLTISSLQPEDFATYYCLQSKESPWTFGQGTKVEIKR
notes: Humanized IgG1/kappa
B7: h#11B7-T9 (antibody, human IgG1, kappa, V domains shown)
VH: QVQLQESGPGLVKPSETLSLTCTVSGYSITSNYWGWIRQPPGKGLEWIGYITYSGSTSYNPSLKSRVSISRDTSKNQFSLKLSSVTAADTAVYYCAITTFYYWGQGTLVTVSS
VL: DIQMTQSPSSLSASVGDRVTITCRASQDIGNYLRWFQQKPGKAPKLMISGATNLAAGVPSRFSGSGSGSDFTLTISSLQPEDFATYYCLQSKESPWTFGQGTKVEIKR
notes: Humanized IgG1/kappa
B8: h#11B7-T8 (antibody, human IgG1, kappa, V domains shown)
VH: QVQLQESGPGLVKPSETLSLTCTVSGYSITSNYWGWIRQPPGKGLEWIGYITYSGSTSYNPSLKSRVSISRDTSKNQFSLKLSSVTAADTAVYYCAITTFYYWGQGTLVTVSS
VL: DIQMTQSPSSLSASVGDRVTITCRASQDIGNYLRWFQQKPGKAPKLLISGATNLAAGVPSRFSGSGSGSDYTLTISSLQPEDFATYYCLQSKESPWTFGQGTKVEIKR
notes: Humanized IgG1/kappa
B9: h#11B7-T14 (antibody, human IgG1, kappa, V domains shown)
VH: QVQLQESGPGLVKPSETLSLTCTVSGYSITSNYWGWIRQPPGKGLEWMGYITYSGSTSYNPSLKSRITISRDTSKNQFSLKLSSVTAADTAVYYCAITTFYYWGQGTLVTVSS
VL: DIQMTQSPSSLSASVGDRVTITCRASQDIGNYLRWYQQKPGKAPKLMISGATNLAAGVPSRFSGSGSGSDYTLTISSLQPEDFATYYCLQSKESPWTFGQGTKVEIKR
notes: Humanized IgG1/kappa

What was measured:
[1] = molecular target: T1, Human AXL-Fc (R&D Systems, #154-AL) (human, UniProt P30530 26-451); assay: ELISA on plate-adsorbed human AXL-Fc (1 ug/ml), 5-fold antibody dilution series, AP-conjugated goat anti-human IgG, fluorescent substrate (Example 13)
T1 construct: Bought reagent; also called human AXL-Fc fusion protein; human AXL-Fc protein; not shown: Fc part of the bought fusion protein
T1 sequence: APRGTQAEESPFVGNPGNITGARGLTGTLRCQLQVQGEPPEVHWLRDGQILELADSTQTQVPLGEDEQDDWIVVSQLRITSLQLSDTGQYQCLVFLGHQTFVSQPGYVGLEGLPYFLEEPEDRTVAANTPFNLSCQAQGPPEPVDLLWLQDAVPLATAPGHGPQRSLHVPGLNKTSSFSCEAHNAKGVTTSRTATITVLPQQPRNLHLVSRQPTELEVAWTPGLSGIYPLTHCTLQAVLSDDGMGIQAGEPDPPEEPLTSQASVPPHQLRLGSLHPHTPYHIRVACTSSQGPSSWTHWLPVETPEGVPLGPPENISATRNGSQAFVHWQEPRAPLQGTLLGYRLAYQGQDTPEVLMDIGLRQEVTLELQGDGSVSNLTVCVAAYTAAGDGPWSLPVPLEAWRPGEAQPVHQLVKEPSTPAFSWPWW

[2] = molecular target: T1, Human AXL-Fc (R&D Systems, #154-AL); assay: as above; remark: listed apart in the source

| Binder | EC50 (read off the curve) [1] [µg/mL] | EC50 (read off the curve) [2] [µg/mL] |
| --- | --- | --- |
| B1 | ~0.03 | – |
| B2 | ~0.04 | – |
| B3 | ~0.02 | – |
| B4 | ~0.02 | – |
| B5 | – | ~0.02 |
| B6 | ~0.03 | – |
| B7 | ~0.02 | – |
| B8 | ~0.02 | – |
| B9 | – | ~0.02 |
